Laboratory results published in the nanobody polyreactivity screen of Harvey et al. (2022).

Experiment: yeast display, Sf9 membrane polyspecificity reagent, FACS + sequencing; frameworks hold sequencing errors
Method in brief: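 A synthetic nanobody library was expressed on Saccharomyces cerevisiae BJ5465 by galactose induction for 36–48 hours. The library was stained for 1 hour at 4 °C with 10% biotinylated, detergent-solubilized Sf9 membrane reagent and enriched with streptavidin microbeads before FACS. Low and high (top ~1%) gates were set on anti-HA fluorescence for expression and streptavidin fluorescence for reagent binding, and each polyreactivity label reflects the gate of origin.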

QVQLVESGGGLVQAGGSLRLSCAASGRIFARKAMGRYRQAPGKEREWVATIRVGGGSTYYADSVKGRFTISRDNAKNTVYLQMNSLKPEDTAVYYFAVRQLYSYPGDRRGYDWGQGTQVTVSS
polyreactivity (PSR sort gate): low polyreactivity

QVQLVESGGGLFQAGGSLRISCAPSGFISHFYAMAWYRHAPGKEREFVARISYSVGSTYYADSVKGRFTISRDNAKNTVYVQMNSLKPEDTAVYDCNAGPQYDVHEYYYWGQGTQVTGSS
polyreactivity (PSR sort gate): low polyreactivity

QVQLVESGGGLVQAGGSLRLSCAASGFIVGHYAMGWYRQAPGQEREFVAAITSGGTTYYADSVKGRFTISRDNAKNTVYLQMNSLKPEDTAVYYCNADDAFRYYWLGLYDYWGQGTQVTVSS
polyreactivity (PSR sort gate): low polyreactivity

QVQLVESGGGLVQAGGSLRLSCAASGSIFESNAMGWYRQAPGKEREFVAAIDWGDGSTSYADSVKGRFTISRDNAKNTVYLQMNSLKPEDTAVYYCAARSVFDLVYYNLIFDYWGQGTQVTVSS
polyreactivity (PSR sort gate): high polyreactivity

QVQLVESGGGLVQAGGSLRLSCAASGSTFRDYAMGWYRQAPGTERELVAAITSGGSTNYADSVKGRFTISRDNAKNSVYLQMISLKPEDTAVYYCNARYAGWYTPWGRQSVYSDDYWGQGTQVTVSS
polyreactivity (PSR sort gate): low polyreactivity

QVQLVESGGGLVQAGGSLRLTCAASGSTFVWYGMGWYRQAPGKEREFVAAISTSGGRTYYADSVKGRFTISRDNAKNTVYLQMNSLKPEDTAVYYCATRPYFTYRWYDYWGQGTQVTVSS
polyreactivity (PSR sort gate): high polyreactivity

QVQLVESGGGLVQAGGSLRLSCAASGSIFYGYAMGWYRQAPGKERELVAAIRSRGGSTYYADSVKGRFTNSRDNEKNTVYLQMKCLKPEDTAVYYCNAVCRARTLCSNTYGYWGQGTQVSVSS
polyreactivity (PSR sort gate): high polyreactivity

QVQLVESGGGLVQAGGSLRLSCAASGSIIKWYAMGWYRQAPGKERELVAAISASGGSTYYADSVKGRFTISRDNAKHTVYLQMNSLKPEDTAVYYCNTDHYYSSRHYDYWGQGTQVTVSS
polyreactivity (PSR sort gate): low polyreactivity

QVQLVESGGGLVQAGGSLRLSCAASGSTFGYNAMGWYRQAPGKERELVAAITRSGGSTDYADSVKGRFTISRDNAKNTVYLQMNSLKPEDTAVYYCAADGDHPWWSQYDYWGQGTQVTVSS
polyreactivity (PSR sort gate): low polyreactivity

QVQLVESGGGLDQAGGSLRLSCAASGRIFNVYAMGWYRQAPGKERELVASITSAGSTYYADSVKGRFTISRDNAKNTVYIKMNSLKPEDTAVYYCAADCYSVYYSTYDSWGQGTQVTVSS
polyreactivity (PSR sort gate): low polyreactivity

QVQLVESGGGLVQAGGSLRLSCAASGRIFRGNVMGWYIQAPGKERELVATITSSARTYYADSVKGRFTISRDNAMITVYLQMNSLKPEDTAVYYCAAKTRWNFYYWGQGTQVSVSS
polyreactivity (PSR sort gate): high polyreactivity

QVHLVESGGGLVQAGGSLRLSCAASGRIFYRNAMGWYRHAPGKERELVAAISRRGGSTSYADSVQGRFTISRDNAKNTVYLQMTSLKPEDTAVYYCAASRFRTGQEDDYWGQGTQVTVSS
polyreactivity (PSR sort gate): high polyreactivity

QVQLVESGGGLVQAGGSLRLSCAASGRTFYVNAMGWYRQAPGKERELVAAINTIGGRTYYADSVKGRFTISRDNAKNTVYLQMNSLKTEDTAVYYCAARQVSRWGYDYWGQGTQVTVSS
polyreactivity (PSR sort gate): high polyreactivity

QVQLVESGGGLVQAGGSLRLSCAASGSTFQWYTMGWYRQAPGKERELVAAITWSGASTYYADSVKGRFTISRDNAKNTVYLQMNSLKPDYTAVYYCAADWRRGSGFYYWGQGTQVTVSS
polyreactivity (PSR sort gate): high polyreactivity

QVQLVESGGGLVQARGSLRLSCAASGIIRSNAMGWYRQAPGKERELVAVISSSGGRTYYADSVKGRFTISRDNAKNTVYLQMTSLKPEDTAVFYCPAQVQVGAFSYYYWGQGTQVTVSS
polyreactivity (PSR sort gate): high polyreactivity

QLQLVDSGGGLVQAGGSLRLSCAASGFTLDYYAMGWYRQAPGKESELVAAISWSGGRTYYADSVKGRFTISRDNAKNTVYLQMNSLKPEDTAVYYCNASPYGRKYGILADGDYWGQGTQVTVSS
polyreactivity (PSR sort gate): high polyreactivity

QVQLQESGGGLVLAGGSLRLSCSASGNNSVYGSMGWYRQAPGKEREFVATIDPGTNTNYADSVKDRFTISRDNAKNTVYLQMNSLKPEDTAVYYCAVEAGSDWPYRYWGQGTQVTVSS
polyreactivity (PSR sort gate): low polyreactivity

QVQLVESGGGLVQAGGSLRLICAASGRTFRYYAMGWYRQAPGKERELVASISDGGSTNYADSVKGRFTISRDNAKNTVYLQMNSLKPEDTAVYYCNAKAYVWYLYDEFGYWGQGTQVTVSS
polyreactivity (PSR sort gate): low polyreactivity

QVQLVESGGGLVQAGGSLRLSCAASGRIFSYYGMGWYRQAPGKERELVAAISTGGNTNYADSLKGRFTISRDNAKNTVYLQMNSLKPEDTAVYYCAAGFPYKFTYVCGYNHWGQGTQVTVSS
polyreactivity (PSR sort gate): low polyreactivity

QVQLVESGGGLVQAGGSLRLSCAASGRIFRSNTMGWYRQAPGKERELVAAITRRGGSTYYADSVKGRFTISRDNAKNTVYLQLNSLKPEDTAVYYCAAVKSYYSEYGYWGQGTQGTVSS
polyreactivity (PSR sort gate): high polyreactivity

QVQLVESGGGLVQAGGSLRLSCAASGRTFRFYALGWYRQAPGKEREFVAAISRSVGSTYYADSVKGRFTISRDNAKHTVYLQMNSLKPEDTAVYYCAARVFRGLGEYYWGQGTQVTVSS
polyreactivity (PSR sort gate): high polyreactivity

QVQLVESGGGLVQAGGSLRLSCAASGRIFVGYAMGRNIQAPGKERELVAAISRDGDNTFYADSVKGRFTISRDNAKNTVYLQMNSLKPEDTAVYYCAVDYWVWSCSAYAYDYYWGQVTQVTVSS
polyreactivity (PSR sort gate): low polyreactivity

QVQLVESGGGLVQAGCSLRLSCAASGSIFDSKAMGWYRQAPGKERELVAAISSSGARTYYADSVKGRFTISRDNAKNTVYLQMNSLKPEDTAVYYCAAKPGYKSKMDYWGQGTQVTVSS
polyreactivity (PSR sort gate): high polyreactivity

QVQLVESGGGLVQAGGSLRLSCAASGSIFNWYAMGWYTQAPGKERELVAAISWRCGSTYYADSVKGRFTISRDNAKITVYLQMNSLKPEDTAVYYCAADGGADHMDYWGQGTQVTVSS
polyreactivity (PSR sort gate): high polyreactivity

QVQLVESGGGLVQAGGSLRLSCAASGRIFTPYARGWYRQAPGKERELVAAISGRGGSTYYADSVKGRFTISRDNAKNTVYLQMNSLKPEDTAVYYCAATYFYVYDYGLDYWGQGTQVTVSS
polyreactivity (PSR sort gate): high polyreactivity

QVQLVESAGGLVQAGGSLRLSCAASGSIFGLYAMGWSRQAPGKDRELVAAITSAGSTYYADSVKGRFTISRDNAKNTVYLQMNTLKPEDTAVYYCAARGFYQFPSYYYWGKGTQVTVSS
polyreactivity (PSR sort gate): high polyreactivity

QLQQHESGGGLVQAGDSPRLSCAESDNIFPDSVMCWYLQAPGKERELVATIGFGATTNYADSVKGRFTISRDNAKNTVYLQMNCLKPEDTAVYYSAADPLNYEYFCYWGQGTQVTVSS
polyreactivity (PSR sort gate): low polyreactivity

QVPLVESGGGLVQAGGSLRLSCAASGRTFRPYALGWYRQAPGKERELVATISGGGSTYYADSVKGRFTISRDNAKNSLYLQLNSLKPEETAFYYCAKVLTYGGVSYISRMDYWGQATQVTVSS
polyreactivity (PSR sort gate): low polyreactivity

QVQLVESGGGLVQAGGSLRLSCAASGFILRGYAMGWYIQAPGKERELVDVITGRGDRTYYADSVKGRFTISRDNAKNTVYLQMNSLKPEETAVYYCAARAQPGGSSAIKMYYWGQGTQVTVSS
polyreactivity (PSR sort gate): high polyreactivity

QVQLVESGGGLVQAGGSLRLSCAASGRIRNAMGWYRQAPGKERELVAGITWSGGRTYYADSVKGRFTISRDNAKYTVYLQMNSLKPEDTAVYYCAAATPYRYNYWGQGTQVTVSS
polyreactivity (PSR sort gate): high polyreactivity

QVQIVESGGGLVQAGGSLRLICAASGRILSANAMGWYRQAPGKERELVAAITYSGDNTYYADYVKGRFTISRDNANNTVYLQMNSLKPEDTAVYYCAREFQVDGGEEDYWGQGTQVTVSS
polyreactivity (PSR sort gate): low polyreactivity

QVQLVESGGGLVQAGGSLRLSCAASGRTFYSNAMGWYRQAPGKERELVAAISSSGSSTSYADSVKGRFTMSRDNAKNTVYLQMNSLKPEDTAVYYCAVRTKRRANRDYWGQGTQVTVSS
polyreactivity (PSR sort gate): high polyreactivity
